Reference: publication PMC8786727, “Oligomerization of the FliF Domains Suggests a Coordinated Assembly of the Bacterial Flagellum MS Ring” (Frontiers in Microbiology, 2021)

Columns and labels:
[1] = molecular target: the molecule itself; assay: cryo-EM 2D classification; protein at 10 mg/ml in 50 mM Hepes pH 9.0, 150 mM NaCl; symmetry read from top-view 2D classes; no 3D structure
[2] = molecular target: the molecule itself; assay: SEC; purified protein on Superdex 200 10/300 or Superose 6 10/300; 50 mM Hepes pH 8.0 or 9.0, 500 mM NaCl; oligomeric state from the elution volume

B1: S. Typhimurium FliF RBM2 (FliF_(124–229)) (domain or fragment)
chain: SQFSEQVNYQRALEGELARTIETLGPVKSARVHLAMPKPSLFVREQKSPSASVTVTLEPGRALDEGQISAVVHLVSSAVAGLPPGNVTLVDQSGHLLTQSNTSGRD
notes: FliF, Salmonella enterica serovar Typhimurium, residues 124-229 (RBM2 and linker L2); Made by site-directed mutagenesis from the FliF 50-438 pET-28a construct; also called RBM2 + L2; source: E. coli BL21 DE3, purified (Ni-NTA, SEC on Superdex 200); copies: 23
[1]
  stoichiometry N: 23

B2: S. Typhimurium FliF RBM3 (FliF_(231–438)) (domain or fragment)
chain: NDAQLKFANDVESRIQRRIEAILSPIVGNGNVHAQVTAQLDFANKEQTEEHYSPNGDASKATLRSRQLNISEQVGAGYPGGVPGALSNQPAPPNEAPIATPPTNQQNAQNTPQTSTSTNSNSAGPRSTQRNETSNYEVDRTIRHTKMNVGDIERLSVAVVVNYKTLADGKPLPLTADQMKQIEDLTREAMGFSDKRGDTLNVVNSPFS
notes: FliF, Salmonella enterica serovar Typhimurium, residues 231-438 (RBM3); Made by site-directed mutagenesis from the FliF 50-438 pET-28a construct; Forms rings; the number of subunits of this construct was not measured; source: E. coli BL21 DE3, purified (Ni-NTA, SEC on Superose 6)
[2]
  binding result: binds

B3: S. Typhimurium FliF RBM1-RBM2-RBM3 (FliF_(50–438)) (domain or fragment)
chain: DYRTLFSNLSDQDGGAIVAQLTQMNIPYRFANGSGAIEVPADKVHELRLRLAQQGLPKGGAVGFELLDQEKFGISQFSEQVNYQRALEGELARTIETLGPVKSARVHLAMPKPSLFVREQKSPSASVTVTLEPGRALDEGQISAVVHLVSSAVAGLPPGNVTLVDQSGHLLTQSNTSGRDLNDAQLKFANDVESRIQRRIEAILSPIVGNGNVHAQVTAQLDFANKEQTEEHYSPNGDASKATLRSRQLNISEQVGAGYPGGVPGALSNQPAPPNEAPIATPPTNQQNAQNTPQTSTSTNSNSAGPRSTQRNETSNYEVDRTIRHTKMNVGDIERLSVAVVVNYKTLADGKPLPLTADQMKQIEDLTREAMGFSDKRGDTLNVVNSPFS
notes: FliF (flagellar M-ring protein), Salmonella enterica serovar Typhimurium, residues 50-438 (RBM1, RBM2 and RBM3, without the two trans-membrane helices); full length is 1-560; Synthetic gene in pET-28a; 33-fold symmetry seen in top-view cryo-EM 2D classes; the rings also stick together (~10 MDa by SEC-MALS); also called StFliF_(50–438); periplasmic region of FliF; source: E. coli BL21 DE3, …
[1]
  stoichiometry N: 33
